Publication PMC12095580, “Wnt signalosome assembly is governed by conformational flexibility of Axin and by the AP2 clathrin adaptor” (Nature Communications, 2025)

B1: LRP6-GFP [not stated] / FLAG-AP2μ [not stated] (parent complex)
chain 1: APLLLYANRRDLRLVDATNGKENATIVVGGLEDAAAVDFVFSHGLIYWSDVSEEAIKRTEFNKTESVQNVVVSGLLSPDGLACDWLGEKLYWTDSETNRIEVSNLDGSLRKVLFWQELDQPRAIALDPSSGFMYWTDWGEVPKIERAGMDGSSRFIIINSEIYWPNGLTLDYEEQKLYWADAKLNFIHKSNLDGTNRQAVVKGSLPHPFALTLFEDILYWTDWSTHSILACNKYTGEGLREIHSDIFSPMDIHAFSQQRQPNATNPCGIDNGGCSHLCLMSPVKPFYQCACPTGVKLLENGKTCKDGATELLLLARRTDLRRISLDTPDFTDIVLQLEDIRHAIAIDYDPVEGYIYWTDDEVRAIRRSFIDGSGSQFVVTAQIAHPDGIAVDWVARNLYWTDTGTDRIEVTRLNGTMRKILISEDLEEPRAIVLDPMVGYMYWTDWGEIPKIERAALDGSDRVVLVNTSLGWPNGLALDYDEGKIYWGDAKTDKIEVMNTDGTGRRVLVEDKIPHIFGFTLLGDYVYWTDWQRRSIERVHKRSAEREVIIDQLPDLMGLKATNVHRVIGSNPCAEENGGCSHLCLYRPQGLRCACPIGFELISDMKTCIVPEAFLLFSRRADIRRISLETNNNNVAIPLTGVKEASALDFDVTDNRIYWTDISLKTISRAFMNGSALEHVVEFGLDYPEGMAVDWLGKNLYWADTGTNRIEVSKLDGQHRQVLVWKDLDSPRALALDPAEGFMYWTEWGGKPKIDRAAMDGSERTTLVPNVGRANGLTIDYAKRRLYWTDLDTNLIESSNMLGLNREVIADDLPHPFGLTQYQDYIYWTDWSRRSIERANKTSGQNRTIIQGHLDYVMDILVFHSSRQSGWNECASSNGHCSHLCLAVPVGGFVCGCPAHYSLNADNRTCSAPTTFLLFSQKSAINRMVIDEQQSPDIILPIHSLRNVRAIDYDPLDKQLYWIDSRQNMIRKAQEDGSQGFTVVVSSVPSQNLEIQPYDLSIDIYSRYIYWTCEATNVINVTRLDGRSVGVVLKGEQDRPRAVVVNPEKGYMYFTNLQERSPKIERAALDGTEREVLFFSGLSKPIALALDSRLGKLFWADSDLRRIESSDLSGANRIVLEDSNILQPVGLTVFENWLYWIDKQQQMIEKIDMTGREGRTKVQARIAQLSDIHAVKELNLQEYRQHPCAQDNGGCSHICLVKGDGTTRCSCPMHLVLLQDELSCGEPPTCSPQQFTCFTGEIDCIPVAWRCDGFTECEDHSDELNCPVCSESQFQCASGQCIDGALRCNGDANCQDKSDEKNCEVLCLIDQFRCANGQCIGKHKKCDHNVDCSDKSDELDCYPTEEPAPQATNTVGSVIGVIVTIFVSGTVYFICQRMLCPRMKGDGETMTNDYVVHGPASVPLGYVPHPSSLSGSLPGMSRGKSMISSLSIMGGSSGPPYDRAHVTGASSSSSSSTKGTYFPAILNPPPSPATERSHYTMEFGYSSNSPSTHRSYSYRPYSYRHFAPPTTPCSTDVCDSDYAPSRRMTSVATAKGYTSDLNYDSEPVPPPPTPRSQYLSAEENYESCPPSPYTERSYSHHLYPPPPSPCTDSS
chain 2: MIGGLFIYNHKGEVLISRVYRDDIGRNAVDAFRVNVIHARQQVRSPVTNIARTSFFHVKRSNIWLAAVTKQNVNAAMVFEFLYKMCDVMAAYFGKISEENIKNNFVLIYELLDEILDFGYPQNSETGALKTFITQQGIKSQHQTKEEQSQITSQVTGQIGWRREGIKYRRNELFLDVLESVNLLMSPQGQVLSAHVSGRVVMKSYLSGMPECKFGMNDKIVIEKQGKGTADETSKSGKQSIAIDDCTFHQCVRLSKFDSERSISFIPPDGEFELMRYRTTKDIILPFRVIPLVREVGRTKLEVKVVIKSNFKPSLLAQKIEVRIPTPLNTSGVQVICMKGKAKYKASENAIVWKIKRMAGMKESQISAEIELLPTNDKKKWARPPISMNFEVPFAPSGLKVRYLKVFEPKLNYSDHDVIKWVRYIGRSGIYETRC

Variants of: B1
Test: coIP (FLAG IP, α-GFP blot densitometry)

Going from chain 1 S1560A to chain 1 Y1498A, chain 1 Y1501A, chain 1 Y1503A, chain 1 F1506A, the ratio to parent falls from 0.69 to 0.05.

Going from chain 1 Y1498A, chain 1 Y1501A to chain 1 Y1503A, chain 1 F1506A, the ratio to parent falls from 0.58 to 0.31.

In the case of chain 1 Y1503A, the ratio to parent is reported as 0.21.
